The text below walks through data of publication PMC5805349, “Recombinant expression, purification and biochemical characterization of kievitone hydratase from Nectria haematococca” (PLoS ONE, 2018).

For data set [1], the target named is T1, FsKHS (Fusarium phaseoli, UniProt Q00870).
T1 construct: gene khs; 19-residue signal peptide cleaved between Ala19 and Ser20; C-terminal His10 tag
Nature of the data set: HPLC conversion assay with P. pastoris culture supernatant. Type of data set: biochemical. The note with it: 2 mM kievitone, 35°C, culture supernatant of P. pastoris expressing FsKHS, mere turnover.

Data set [2] deals with COc1cc(O)c(CC=C(C)C)c(O)c1C(=O)/C=C/c1ccc(O)cc1. Nature of the data set: purified protein. The note with it: 50 mM sodium citrate, pH 6.0, 35°C, 2% v/v ethanol, 0.05 mg/mL enzyme, apparent because of low XN solubility, water is co-substrate.

The Km is the concentration of substrate that gives half-maximal velocity. A word on the kcat: it is the number of substrate molecules converted per active site and unit of time at saturation.

T1 sequence (Q00870 20-350): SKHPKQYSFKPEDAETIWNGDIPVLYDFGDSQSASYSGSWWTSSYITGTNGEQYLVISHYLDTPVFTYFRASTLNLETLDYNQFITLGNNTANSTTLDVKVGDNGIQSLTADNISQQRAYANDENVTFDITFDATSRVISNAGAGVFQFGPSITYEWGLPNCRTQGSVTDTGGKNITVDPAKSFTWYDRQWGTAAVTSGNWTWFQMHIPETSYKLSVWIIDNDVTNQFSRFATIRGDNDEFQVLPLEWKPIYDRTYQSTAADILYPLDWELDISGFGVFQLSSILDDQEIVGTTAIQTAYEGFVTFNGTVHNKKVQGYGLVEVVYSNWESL

`CC(C)=CCc1c(O)cc(O)c2c1OCC(c1ccc(O)cc1O)C2=O` (stereo not drawn) [KV, kievitone]: in data set [1], the “% substrate converted in 3 h” value is given as ~ 89%. For NhKHS (Fusarium vanettenii 77-13-4), in data set [2], the Km is 980 ± 130 µM and the kcat was determined as 4.77 ± 0.33 s⁻¹.
